We go through six molecules from paper PMC12403569, “The regulatory network of Coprinopsis cinerea transcription factor Skn7 collaborates with bHLH1 during fungal-fungal interactions”.

One series addresses T1, Skn7 DBD (Coprinopsis cinerea, UniProt A8PG35 214-443).
T1 sequence: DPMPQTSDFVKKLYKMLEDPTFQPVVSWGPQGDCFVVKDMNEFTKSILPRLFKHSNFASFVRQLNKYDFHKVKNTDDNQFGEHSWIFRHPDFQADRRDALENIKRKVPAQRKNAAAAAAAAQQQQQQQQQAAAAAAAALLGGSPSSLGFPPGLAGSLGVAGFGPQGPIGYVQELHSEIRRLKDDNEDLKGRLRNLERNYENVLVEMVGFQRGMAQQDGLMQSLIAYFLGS
Kind of series: EMSA; poly d(I-C); 25 mM HEPES, 4 mM DTT, 100 mM KCl, 2 mM MgCl2, 10% glycerol, 0.01 mg/mL BSA, pH 7.3; 200 ng probe, 200 ng poly d(I-C), 20 µL; temperature not stated. The settings on record: protein: recombinant; tags: His-SUMO, removed with Ulp1; label: 5'-6-carboxyfluorescein. On the technique in general: Mobility shift assays separate free from complexed probe on a gel.

The target of another series is T2, truncated bHLH1 (Coprinopsis cinerea, UniProt A8P5K0 311-490).
T2 sequence: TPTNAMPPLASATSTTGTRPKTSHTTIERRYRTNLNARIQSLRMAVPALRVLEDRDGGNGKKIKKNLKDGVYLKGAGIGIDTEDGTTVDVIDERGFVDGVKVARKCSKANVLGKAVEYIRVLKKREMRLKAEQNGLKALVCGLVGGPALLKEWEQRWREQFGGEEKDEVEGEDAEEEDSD
Kind of series: EMSA; 25 mM HEPES, 4 mM DTT, 100 mM KCl, 2 mM MgCl2, 10% glycerol, 0.01 mg/mL BSA, pH 7.3; 200 ng probe, 200 ng poly d(I-C), 20 µL; temperature not stated. The settings on record: protein: recombinant; tags: His; chain copies: 2.

B1: lcc9 promoter probe (dsDNA)
DNA 1: CATTCTGTCTAGAAT
DNA 2: ATTCTAGACAGAATG
As for B1, in the series with Skn7 DBD, the binding result is “binds”.

B2: easA promoter probe (dsDNA)
DNA 1: TGGTGGACAAGTTTCCGT
DNA 2: ACGGAAACTTGTCCACCA
For the molecule B2, in the series with Skn7 DBD, the binding result is on record as “binds”.

B3: nrps promoter probe (dsDNA)
DNA 1: TAACCATGTCCAACTCTAAT
DNA 2: ATTAGAGTTGGACATGGTTA
Consider B3, for which the binding result with Skn7 DBD was “binds”.

B4: gst promoter probe (dsDNA)
DNA 1: GATGTGTCGACGTCTGA
DNA 2: TCAGACGTCGACACATC
Take B4: the binding result in the series with Skn7 DBD is given as “binds”.

B5: sod2 promoter probe (dsDNA)
DNA 1: AGAAGGATCTAGAGACTCGG
DNA 2: CCGAGTCTCTAGATCCTTCT
As to B5, in the series with Skn7 DBD, the binding result was “binds”.

B6: lcc9 promoter probe for bHLH1 (dsDNA)
DNA 1: ATTCATTCTGTCTAGAATGGG
DNA 2: CCCATTCTAGACAGAATGAAT
Regarding B6, the binding result with truncated bHLH1 is reported as “binds”.
